Reference: article PMC12344017 (Nature Communications, 2025)

Target: the molecule itself
Test: cryo-EM structure

B1: MscS/YnaI chimera (other, E. coli | Escherichia coli, UniProt P0C0S1 1-31, looked up)
chain: MEDLNVVDSINGAGSWLVANQALLLSYAVNIIDFICTSLIAVILTIKLFLLINQFEKQQIKKGRDITSARIMSRIIKITIIVVLVLLYGEHFGMSLSGLLTFGGIGGLAVGMAGKDILSNFFSGIMLYFDRPFSIGDWIRSPDRNIEGTVAEIGWRITKITTFDNRPLYVPNSLFSSISVENPGRMTNRRITTTIGLRYEDAAKVGVIVEAVREMLKNHPAIDQRQTLLVYFNQFADSSLNIMVYCFTKTTVWAEWLAAQQDVYLKIIDIVQSHGADFAFPSQTLYMDNITPPEQGR
Does B1 bind?
Result: binds
